Source: patent US20100330617A1 (Sanofi, published 2010)

Molecular target: T1, bovine serum albumin (bovine, UniProt P02769 25-607)
T1 construct: Control resin with an equimolar amount of BSA coupled; also called BSA; BSA-agarose resin
Test: affinity chromatography of murine liver extract on BSA control resin, SDS-PAGE and silver staining

T1 sequence (P02769 25-607 limits assumed): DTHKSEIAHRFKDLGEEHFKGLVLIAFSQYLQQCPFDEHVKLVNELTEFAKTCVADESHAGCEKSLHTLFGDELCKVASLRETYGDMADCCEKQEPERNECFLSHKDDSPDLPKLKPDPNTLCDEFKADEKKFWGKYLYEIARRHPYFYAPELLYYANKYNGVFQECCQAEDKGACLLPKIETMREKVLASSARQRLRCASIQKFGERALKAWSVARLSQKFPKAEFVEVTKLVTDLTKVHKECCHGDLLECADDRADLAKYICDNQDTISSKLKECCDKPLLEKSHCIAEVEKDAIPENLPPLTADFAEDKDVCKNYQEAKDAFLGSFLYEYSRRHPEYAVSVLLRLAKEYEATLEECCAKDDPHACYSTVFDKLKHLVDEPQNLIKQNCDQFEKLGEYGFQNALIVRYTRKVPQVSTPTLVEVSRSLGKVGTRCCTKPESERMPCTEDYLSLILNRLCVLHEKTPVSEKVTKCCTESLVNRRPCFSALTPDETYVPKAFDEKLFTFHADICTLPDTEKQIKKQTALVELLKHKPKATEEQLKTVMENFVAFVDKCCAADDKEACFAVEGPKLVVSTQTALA

B1: endogenous LIMP-2 from murine liver extract (75 kD GC binding protein) (receptor)
chain: MGRCCFYTAGTLSLLLLVTSVTLLVARVFQKAVDQTIEKNMVLQNGTKVFNSWEKPPLPVYIQFYFFNVTNPEEILQGEIPLLEEVGPYTYRELRNKANIQFGENGTTISAVTNKAYVFERNQSVGDPNVDLIRTINIPLLTVVDLAQLTLLRELIEAMLKAYQQKLFVIHTVHELLWGYKDEILSLVHIFKPDVSPNFGLFYERNGTNDGEYVFLTGEDNYLNFSKIVEWNGKTSLDWWTTDTCNMINGTDGDSFHPLISKDEVLYLFPSDLCRSVHITFSSFENVEGLPAFRYKVPAEILANTSENAGFCIPEGNCMDSGVLNISICKNGAPIIMSFPHFYQADEKFVSAIKGMHPNKEEHESFVDINPLTGIILRGAKRFQINTYVRKLDDFVETGDIRTMVFPVMYLNESVLIDKETANQLKSVINTTLVVTNIPYIIMALGVFFGLVFTWLACRGQGSMDEGTADERAPLIRT
notes: Identified by mass spectrometry as LIMP-2; N-glycosylated (75 kD, 54 kD after PNGase-F); also called 75 kD polypeptide
Q: Does B1 bind?
A: no binding
